Experimental data reported in publication doi:10.1101/169961.

Target: Chicken skeletal muscle actin (chicken) (UniProt P68139)
Experiment: TIRF microscopy

## tropomyosin AlaSer-Cdc8, labeled (natural protein)
  percent of Fim1 association with F-actin prevented by Cdc8 alone: 50%
